Assay [1] has as its target T1, human FcγRIIIa, allotype V158, extracellular domain, His-tagged (human, UniProt P08637 17-208).
T1 construct: extracellular domain; also called hFcγR IIIa V
Description: KD of 04H1637-G1m/04L1610-lam1 divided by KD of this antibody; SPR pH 7.4. The protocol:
(§1) The interaction between the generated antibodies and human FcγRs was analyzed by the following method using Biacore T200. 50 mM Na-Phosphate, 150 mM NaCl, 0.05% Tween20 (pH 7.4) was used as the running buffer, and the assay was performed at 25° C. For the sensor chips, Series S SA (GE Healthcare) chips onto which CaptureSelect Human Fab-lambda Kinetics Biotin Conjugate (Thermo Fisher Scientific) was immobilized were used. The antibodies of interest were captured onto these chips and each FcγR diluted in the running buffer was allowed to interact with them. Chips were regenerated with 10 mM Glycine-HCl (pH 1.5) and 25 mM NaOH, and assay was performed by repeatedly capturing antibodies. The dissociation constants KD (mol/L) for FcγRs of each antibody were calculated using Biacore T200 Evaluation Software 2.0, using the 1:1 Langmuir binding model for FcγRIa and FcγRIIIa and the steady state affinity model for FcγRIIa. For FcγRIIb, the binding amount of FcγRIIb per unit amount of antibody was calculated by correcting the binding amount of FcγRIIb obtained from the sensorgram obtained by the measurement with the amount of antibody captured onto the chip surface.
(§2) “Relative value to KD between G1m and hFcRn” and “Relative value to KD between G1m and hFcγRs” are values obtained by dividing the KD value of 04H1637-G1m/04L1610-lam1 for hFcRn and for each FcγR by the KD value of each variant, respectively. “Relative binding amount” indicates the value obtained by dividing the binding amount of each variant to FcγRIIb by the binding amount of 04H1637-G1m/04L1610-lam1. […] It was shown that all of the generated heterodimerized antibodies had enhanced binding to FcγRIIa and FcγRIIIa as compared with 04H1637-G1m/04L1610-lam1 which has the constant region of native human IgG1.

In assay [2] the target is T2, human FcγRIa extracellular domain, His-tagged (human, UniProt P12314 16-292).
T2 construct: also called hFcγR Ia
The description is as above. The method, then: as §1, §2

Assay [3] addresses T3, human FcγRIIIa, allotype F158, extracellular domain, His-tagged (human, UniProt P08637 17-208).
T3 construct: extracellular domain; also called hFcγR IIIa F
The description is as above. The method, then:
as §1, §2

Assay [4] concerns the target T4, human FcγRIIa, type H, extracellular domain, His-tagged (human, UniProt P12318 34-217).
T4 construct: extracellular domain; also called hFcγR IIa H
T4 sequence (looked up): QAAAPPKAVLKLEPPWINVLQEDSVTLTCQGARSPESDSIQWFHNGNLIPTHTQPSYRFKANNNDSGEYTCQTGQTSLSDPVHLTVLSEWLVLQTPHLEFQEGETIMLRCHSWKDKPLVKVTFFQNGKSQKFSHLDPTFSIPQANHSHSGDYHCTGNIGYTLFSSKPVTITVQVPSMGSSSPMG
Described as above. The method, then: as §1, §2

The target in assay [5] is T5, human FcγRIIa, type R, extracellular domain, His-tagged (human, UniProt P12318 34-217).
T5 construct: extracellular domain; also called hFcγR IIa R
T5 sequence (looked up): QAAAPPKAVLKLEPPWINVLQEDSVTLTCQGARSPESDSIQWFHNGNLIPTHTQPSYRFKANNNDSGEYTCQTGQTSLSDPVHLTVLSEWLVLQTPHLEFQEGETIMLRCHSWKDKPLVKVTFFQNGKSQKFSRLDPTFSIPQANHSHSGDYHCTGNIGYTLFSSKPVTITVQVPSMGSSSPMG
The assay is described as above. The method, then:
as §1, §2

Assay [6] deals with T6, human FcγRIIb extracellular domain, His-tagged (human, UniProt P31994 43-217).
T6 construct: extracellular domain; also called hFcγR IIb
T6 sequence (looked up): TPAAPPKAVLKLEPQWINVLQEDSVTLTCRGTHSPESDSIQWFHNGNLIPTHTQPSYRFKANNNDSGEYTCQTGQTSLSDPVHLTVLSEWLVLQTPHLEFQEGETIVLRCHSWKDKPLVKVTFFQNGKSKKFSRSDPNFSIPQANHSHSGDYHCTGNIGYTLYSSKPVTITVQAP
Description: SPR Biacore T200, 25C, pH 7.4; FcγRIIb at 1000 nM, corrected by captured antibody. The method, then: as §1

For a further assay, the target named is T7, human FcRn (human, UniProt P55899 24-290; P61769 21-119).
T7 construct: Prepared by the method of WO 2010/107110; also called hFcRn
Kind of assay: KD of 04H1637-G1m/04L1610-lam1 divided by KD of this antibody; SPR pH 6.0. The method, then:
The interaction between the generated antibodies and human FcRn was analyzed by the following method using Biacore T200. 50 mM Na-Phosphate, 150 mM NaCl, 0.05% Tween20 (pH 6.0) was used as the running buffer, and the assay was performed at 25° C. For the sensor chip, Series S SA (GE Healthcare) chips onto which CaptureSelect Human Fab-lambda Kinetics Biotin Conjugate (Thermo Fisher Scientific) was immobilized were used. The antibodies of interest were captured onto these chips and FcRn diluted in the running buffer was allowed to interact with them. Chips were regenerated with 10 mM Glycine-HCl (pH 1.5) and 25 mM NaOH, and assay was performed by repeatedly capturing antibodies. The dissociation constant for FcRn of each antibody was calculated using the steady state model, using Biacore T200 Evaluation Software 2.0.
“Relative value to KD between G1m and hFcRn” and “Relative value to KD between G1m and hFcγRs” are values obtained by dividing the KD value of 04H1637-G1m/04L1610-lam1 for hFcRn and for each FcγR by the KD value of each variant, respectively. “Relative binding amount” indicates the value obtained by dividing the binding amount of each variant to FcγRIIb by the binding amount of 04H1637-G1m/04L1610-lam1. […] It was shown that all of the generated heterodimerized antibodies had enhanced binding to FcγRIIa and FcγRIIIa as compared with 04H1637-G1m/04L1610-lam1 which has the constant region of native human IgG1. Furthermore, 04H1637-Kn462/04L1610-lam1//04H1637-H1441/04L1610-lam1, 04H1637-Kn462/04L1610-lam1//04H1637-H1445/04L1610-lam1, and 04H1637-Kn461/04L1610-lam1//04H1637-H1443/04L1610-lam1 were all shown to have enhanced binding to FcγRIIa compared to 04H1637-Kn125/04L1610-lam1//04H1637-H1076/04L1610-lam 1 which has the Fc region variant reported in WO 2013/002362.

The target in assay [7] is T6, human FcγRIIb extracellular domain, …. Description: binding amount of this antibody divided by that of 04H1637-G1m/04L1610-lam1; SPR pH 7.4. The method, then: as §1, §2

T1 sequence (P08637 17-208 F176V): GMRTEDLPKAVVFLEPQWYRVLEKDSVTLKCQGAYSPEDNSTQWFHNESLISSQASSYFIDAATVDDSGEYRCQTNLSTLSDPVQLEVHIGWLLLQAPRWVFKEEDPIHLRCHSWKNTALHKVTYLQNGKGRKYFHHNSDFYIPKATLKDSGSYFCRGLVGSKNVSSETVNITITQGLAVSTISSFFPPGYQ
T7 sequence (P55899 24-290 limits assumed, chain 1 of 2): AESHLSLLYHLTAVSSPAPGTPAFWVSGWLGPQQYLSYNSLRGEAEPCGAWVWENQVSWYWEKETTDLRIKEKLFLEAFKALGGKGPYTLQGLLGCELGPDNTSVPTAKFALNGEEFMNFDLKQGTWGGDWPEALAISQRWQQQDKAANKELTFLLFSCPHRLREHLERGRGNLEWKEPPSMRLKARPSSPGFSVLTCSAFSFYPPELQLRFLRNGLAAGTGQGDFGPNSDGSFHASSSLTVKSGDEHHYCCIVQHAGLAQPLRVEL
T7 sequence (P61769 21-119 limits assumed, chain 2 of 2): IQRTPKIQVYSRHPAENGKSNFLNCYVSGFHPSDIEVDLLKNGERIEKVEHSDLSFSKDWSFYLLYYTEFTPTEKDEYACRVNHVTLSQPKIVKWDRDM
T3 sequence (P08637 17-208): as the sequence (P08637 17-208 F176V) above, with V160F counted along it
T2 sequence (P12314 16-292): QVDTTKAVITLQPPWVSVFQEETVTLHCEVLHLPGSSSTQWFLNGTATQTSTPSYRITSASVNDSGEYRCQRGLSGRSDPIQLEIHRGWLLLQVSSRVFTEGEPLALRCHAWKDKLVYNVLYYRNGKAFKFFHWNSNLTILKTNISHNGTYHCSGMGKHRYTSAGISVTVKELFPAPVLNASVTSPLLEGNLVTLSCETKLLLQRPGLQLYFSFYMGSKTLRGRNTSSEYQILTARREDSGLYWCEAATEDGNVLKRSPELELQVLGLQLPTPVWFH

B1: 04H1654-KT461/04L1612-lam1//04H1656-HT443/04L1612-lam1 (antibody, human IgG1, lambda)
heavy 1: QVQLVESGGGVVQPGGSLRLSCAASGFTFSSKTMNWVRQAPGKGLEWVSSISTQSHYIYYARSVRGRFTISRDNAKNSLYLQMNSLRAEDTAVYYCARYGKREDMLWVFDYWGQGTLVTVSSASTKGPSVFPLAPSSKSTSGGTAALGCLVKDYFPEPVTVSWNSGALTSGVHTFPAVLQSSGLYSLSSVVTVPSSSLGTQTYICNVNHKPSNTKVDKRVEPKSCDKTHTCPPCPAPEFQWGPMVFLFPPKPKDVLMISRTPEVTCVVVDVSDEEPEVKFNWYVDGVEVHNAKTKPREEQYNATYRVVSVLPVLHQDWLNGKEYKCKVSNDALPAPEEKTISKAKGQPREPQVYTLPPSRKEMTKNQVSLTCLVKGFYPSDIAVEWESNGQPENNYKTTPPVLDSDGSFFLYSKLTVDKSRWQQGNVFSCSVMHEALHNHYTQKSLSLSP
heavy 2: QVQLVESGGGVVQPGGSLRLSCAASGFTFSSKTMNWVRQAPGKGLEWVSSISTQSHYIYYAESVRGRFTISRDNAKNSLYLQMNSLRAEDTAVYYCARYGAREDMLWVFDYWGQGTLVTVSSASTKGPSVFPLAPSSKSTSGGTAALGCLVKDYFPEPVTVSWNSGALTSGVHTFPAVLQSSGLYSLSSVVTVPSSSLGTQTYICNVNHKPSNTKVDKRVEPKSCDKTHTCPPCPAPELLAGPSVFLFPPKPKDVLMISRTPEVTCVVVDVSHEEPEVKFNWYVDGVEVHNAKTKPREEQYNATYRVVSVLPVLHQDWLNGKEYKCKVSNDALPAPEEETISKAKGQPREPQVYTLPPSREEMTKNQVSLTCLVKGFYPSDIAVEWESNGQPENNYKTTPPVLDSDGSFFLYSKLTVDKSRWQQGNVFSCSVMHEALHNHYTQESLSLSP
light: QSALTQPPSASGSPGQSVTISCEGPSTGVGDYTYVHWYQQHPGKAPKLMIYFTSKKPSGVPDRFSGSKSGNTASLTVSGLQAEDEADYYCQTYAAPLGPMFGGGTKLTVLGQPKAAPSVTLFPPSSEELQANKATLVCLISDFYPGAVTVAWKADSSPVKAGVETTTPSKQSNNKYAASSYLSLTPEQWKSHRSYSCQVTHEGSTVEKTVAPTECS
notes: Heterodimerized IgG1 (IGHG1*03) Fc variant
As to B1, the “Relative value to KD between G1m and hFcγRs” value in assay [1] stood at 159 ratio; in assay [2], 1.3 ratio; in assay [3], 537 ratio; in assay [4], 7.1 ratio; in assay [5], 8.2 ratio. Besides, in assay [6], the Binding amount is 0.025 RU per RU of captured antibody. Also, in the assay with human FcRn, the “Relative value to KD between G1m and hFcRn” value was found to be 0.8 ratio. The Relative binding amount in assay [7] came to 3.1 ratio.

B2: 04H1654-KT462/04L1612-lam1//04H1656-HT445/04L1612-lam1 (antibody, human IgG1, lambda)
heavy 1: QVQLVESGGGVVQPGGSLRLSCAASGFTFSSKTMNWVRQAPGKGLEWVSSISTQSHYIYYARSVRGRFTISRDNAKNSLYLQMNSLRAEDTAVYYCARYGKREDMLWVFDYWGQGTLVTVSSASTKGPSVFPLAPSSKSTSGGTAALGCLVKDYFPEPVTVSWNSGALTSGVHTFPAVLQSSGLYSLSSVVTVPSSSLGTQTYICNVNHKPSNTKVDKRVEPKSCDKTHTCPPCPAPEFQWGPMVFLFPPKPKDVLMISRTPEVTCVVVDVSDEEPEVKFNWYVDGVEVHNAKTKPREEQYNATYRVVSVLPVLHQDWLNGKEYKCKVSNDALPAPIEKTISKAKGQPREPQVYTLPPSRKEMTKNQVSLTCLVKGFYPSDIAVEWESNGQPENNYKTTPPVLDSDGSFFLYSKLTVDKSRWQQGNVFSCSVMHEALHNHYTQKSLSLSP
heavy 2: QVQLVESGGGVVQPGGSLRLSCAASGFTFSSKTMNWVRQAPGKGLEWVSSISTQSHYIYYAESVRGRFTISRDNAKNSLYLQMNSLRAEDTAVYYCARYGAREDMLWVFDYWGQGTLVTVSSASTKGPSVFPLAPSSKSTSGGTAALGCLVKDYFPEPVTVSWNSGALTSGVHTFPAVLQSSGLYSLSSVVTVPSSSLGTQTYICNVNHKPSNTKVDKRVEPKSCDKTHTCPPCPAPELLAGPSVFLFPPKPKDVLMISRTPEVTCVVVDVSHEEPEVKFNWYVDGVEVHNAKTKPREEQYNATYRVVSVLPVLHQDWLNGKEYKCKVSNDALPKPDEETISKAKGQPREPQVYTLPPSREEMTKNQVSLTCLVKGFYPSDIAVEWESNGQPENNYKTTPPVLDSDGSFFLYSKLTVDKSRWQQGNVFSCSVMHEALHNHYTQESLSLSP
light: QSALTQPPSASGSPGQSVTISCEGPSTGVGDYTYVHWYQQHPGKAPKLMIYFTSKKPSGVPDRFSGSKSGNTASLTVSGLQAEDEADYYCQTYAAPLGPMFGGGTKLTVLGQPKAAPSVTLFPPSSEELQANKATLVCLISDFYPGAVTVAWKADSSPVKAGVETTTPSKQSNNKYAASSYLSLTPEQWKSHRSYSCQVTHEGSTVEKTVAPTECS
notes: as for B1
For the molecule B2, the “Relative value to KD between G1m and hFcγRs” value is 106 ratio in assay [1]; 1.2 ratio in assay [2]; 408 ratio in assay [3]; 16.1 ratio in assay [4]; 14.2 ratio in assay [5]. Besides, the Binding amount in assay [6] is 0.028 RU per RU of captured antibody. Further, in the assay with human FcRn, the “Relative value to KD between G1m and hFcRn” value worked out at 0.8 ratio. The Relative binding amount in assay [7] turned out to be 3.4 ratio.

For the origin of these results see patent US20260092115A1 (Chugai, published 2026).
